The results in this text go back to patent publication US20250270314A1 (TAVOTEK BIOTECH SUZHOU, published 2025).

Assay [1] has as its target T1, human CDH17 on AGS gastric cancer cells and AsPC-1 pancreatic cancer cells (human, UniProt Q12864 23-832).
T1 construct: Native CDH17 on the surface of cancer cell lines; also called CDH17 expressing AGS cells; CDH17 expressing AsPC-1 pancreatic cancer cells
T1 sequence: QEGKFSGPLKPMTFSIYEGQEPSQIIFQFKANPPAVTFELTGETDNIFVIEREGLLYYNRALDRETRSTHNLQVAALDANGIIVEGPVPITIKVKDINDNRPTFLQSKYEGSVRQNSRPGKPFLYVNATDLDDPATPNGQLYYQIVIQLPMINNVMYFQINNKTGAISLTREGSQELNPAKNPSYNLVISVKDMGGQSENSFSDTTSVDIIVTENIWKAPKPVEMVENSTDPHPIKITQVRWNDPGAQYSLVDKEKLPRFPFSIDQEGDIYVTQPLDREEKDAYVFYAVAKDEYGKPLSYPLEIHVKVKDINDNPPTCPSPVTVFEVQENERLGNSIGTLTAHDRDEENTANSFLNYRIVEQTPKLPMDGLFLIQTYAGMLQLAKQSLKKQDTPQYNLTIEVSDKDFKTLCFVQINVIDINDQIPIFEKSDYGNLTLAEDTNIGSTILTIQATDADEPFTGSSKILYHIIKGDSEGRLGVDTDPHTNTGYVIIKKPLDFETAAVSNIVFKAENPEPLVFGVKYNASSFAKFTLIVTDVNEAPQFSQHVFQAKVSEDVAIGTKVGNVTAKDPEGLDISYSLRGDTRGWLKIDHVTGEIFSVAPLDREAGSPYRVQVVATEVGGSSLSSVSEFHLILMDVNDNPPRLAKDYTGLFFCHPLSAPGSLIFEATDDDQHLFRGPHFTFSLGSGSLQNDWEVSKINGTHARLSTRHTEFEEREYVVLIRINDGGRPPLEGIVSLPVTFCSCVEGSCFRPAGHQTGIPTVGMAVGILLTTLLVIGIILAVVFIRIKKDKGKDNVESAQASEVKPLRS
Briefly: flow cytometry on AGS and AsPC-1 cells.

The target of assay [2] is T2, recombinant human CDH17 (R&D systems) (human, UniProt Q12864 23-787).
T2 construct: Bought recombinant protein coated on the ELISA plate; also called human Cadherin-17
T2 sequence: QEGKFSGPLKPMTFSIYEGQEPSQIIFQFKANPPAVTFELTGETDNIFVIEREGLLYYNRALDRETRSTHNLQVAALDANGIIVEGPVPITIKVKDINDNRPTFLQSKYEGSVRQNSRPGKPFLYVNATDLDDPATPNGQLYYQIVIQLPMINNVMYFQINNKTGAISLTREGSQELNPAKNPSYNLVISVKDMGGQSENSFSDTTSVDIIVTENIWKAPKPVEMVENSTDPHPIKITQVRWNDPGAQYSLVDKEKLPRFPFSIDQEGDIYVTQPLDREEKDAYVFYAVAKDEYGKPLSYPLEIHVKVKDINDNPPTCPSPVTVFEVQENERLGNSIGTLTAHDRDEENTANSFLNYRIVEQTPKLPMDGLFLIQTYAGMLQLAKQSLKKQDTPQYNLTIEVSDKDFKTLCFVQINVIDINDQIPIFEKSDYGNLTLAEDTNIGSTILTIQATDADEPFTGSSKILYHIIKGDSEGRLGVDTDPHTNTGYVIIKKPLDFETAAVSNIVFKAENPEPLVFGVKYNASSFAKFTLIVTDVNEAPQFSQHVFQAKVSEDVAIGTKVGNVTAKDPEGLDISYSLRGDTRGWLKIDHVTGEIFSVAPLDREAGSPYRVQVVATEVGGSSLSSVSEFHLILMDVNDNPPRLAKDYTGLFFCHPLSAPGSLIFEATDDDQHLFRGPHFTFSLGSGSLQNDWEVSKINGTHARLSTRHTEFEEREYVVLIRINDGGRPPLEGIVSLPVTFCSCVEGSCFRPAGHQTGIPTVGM
Briefly: ELISA, recombinant human CDH17. The method, then:
ELISA-based binding assay was employed to evaluate the binding to CDH17 by anti-CDH17 antibodies. In this assay, 100 μL of […] recombinant human CDH17 (R&D systems) was coated on an ELISA plate. Increasing concentrations of masked and reference mAbs were applied on the plate and their binding to the recombinant human proteins were detected by HRP-conjugated anti-human secondary antibody. […] The expressed anti-CDH17 mAbs had potent binding to CDH17. The anti-CDH17 were tested for binding to AGS gastric cancer cells and AsPC-1 pancreatic cancer cells.
On the technique in general: In an ELISA, binding on a coated surface is turned into a signal by an enzyme label.

B1: VHO v366 (VHH)
VHH: EVQLLESGGGLVQPGGSLRLSCAASGFTFSDYWMSWVRQAPGKGLEWVSNINGDGGSTYYADSVKGRFTISRDNSKNTLYLQMNSLRAEDTAVYYCAKTSTFYKQDKFDYWGQGTLVTVSS
notes: Variable-heavy-only (VHO) single domain; also called TS00366
Regarding B1, the binding result in assay [1] and in assay [2] was “binds” in each case.

B2: VHO v358 (VHH)
VHH: EVQLLESGGGLVQPGGSLRLSCAASGFTFSDYWMSWVRQAPGKGLEWVSNISGDGGSTYYADSVKGRFTISRDNSKNTLYLQMNSLRAEDTAVYYCAKTTDLLQGAFDYWGQGTLVTVSS
notes: Variable-heavy-only (VHO) single domain; also called TS00358
On to B2, for which the binding result in assay [1] and in assay [2] was “binds” in each case.
